Experimental data as given in the supplement of paper PMC12764529.
± gives the half width of the 95% confidence interval.

Assays:
[1] = folding stability dG unfold (combined trypsin and chymotrypsin); higher = more stable
How it was run: (§1)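 Unfolding free energy was derived, per protease or combined, against a sequence-predicted unfolded-state K50 and a shared folded-state K50, starting from K50 inferred by Bayesian fitting of sequencing counts. Digestion with trypsin and chymotrypsin was carried out on designed mini-proteins under 80 residues without cysteine in a PA-tagged cDNA display construct. Only designs with AlphaFold2 dimer inter-PAE above 15 were kept.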

[2] = folding stability dG unfold from chymotrypsin proteolysis; higher = more stable
How it was run: as §1

[3] = folding stability dG unfold from trypsin proteolysis; higher = more stable
How it was run: as §1

Sequence	folding stability dG unfold [1]	folding stability dG unfold [2]	folding stability dG unfold [3]
SAGGSAEKPVKIHLMYNPDYYYVRIRNNGGPQSFMFKPDMDIEEIANNFPPGIDEIEIHPMPPEAFSAGGSA [r15_1058_TrROS]	0.421 ± 0.1 kcal/mol	0.491 ± 0.099 kcal/mol	0.251 ± 0.14 kcal/mol
SAGGSAGGMSITINLPNGVTLTITTGDNDVYPITITYPGGETKTLTVTEPLSSISQVISNIVNSSAGGSAGG [r6_27_JUSTAS]	3.33 ± 0.042 kcal/mol	3.28 ± 0.035 kcal/mol	3.38 ± 0.069 kcal/mol
SPPGLRIRIESPDNGEPIPFPIPPNVEVDVKRDKNGNFIATIKIQNPENGKKWTIEIDAPMRIVEIEPVPSA [r9_467_TrROS]	2.76 ± 0.21 kcal/mol	3.35 ± 0.16 kcal/mol	1.6 ± 0.076 kcal/mol
SAGPNFKIEIVPNPNGMEPIATIRPPGRTIVIYRNSNGGYHVQRFDPNNGKPVKQFNMPAEEIIKEILSAGG [r19_188_TrROS]	0.551 ± 0.19 kcal/mol	0.655 ± 0.34 kcal/mol	0.348 ± 0.1 kcal/mol
SAGGGSMVFVEFPQGGKTVRVDVDLEKGVLRVRFPGEGAVLEYPVRDPEAVVRELTPADVPVRAYPESAGGS [r8_95_JUSTAS]	0.439 ± 0.072 kcal/mol	0.405 ± 0.11 kcal/mol	0.346 ± 0.078 kcal/mol
SAGTIKEIAETIAEFMRQNGMNIKVKLTEVDPNDPNYVKVRVEIEMWYYKKNGKPLGPMRHTMTIVIRSAGG [r19_418_TrROS]	2.92 ± 0.29 kcal/mol	3.42 ± 0.13 kcal/mol	2.84 ± 0.11 kcal/mol
SAGGSAMVVRIEVDGKTIEIPAGASLEELKALLAENPGARFRIEVVEPPPPELSEEERKALEEARKSAGGSA [r15_36_TrROS_Hall]	1.37 ± 0.1 kcal/mol	1.32 ± 0.077 kcal/mol	1.35 ± 0.019 kcal/mol
SAGGSAGGSAGGDENDYYMVEIPIWRRNENGGWEPIFPIPIMVPKGAPKDVAKDILNNLSAGGSAGGSAGGS [r10_470_TrROS]	0.382 ± 0.085 kcal/mol	0.324 ± 0.12 kcal/mol	0.361 ± 0.1 kcal/mol
SAGGSAGGSAGGSWTVTKEISREGDKVYISTVTTYVNPNGTPVTETETKEISPEEVAELESAGGSAGGSAGG [r11_690_JUSTAS]	1.11 ± 0.11 kcal/mol	1.11 ± 0.14 kcal/mol	0.964 ± 0.037 kcal/mol
SAGGSPRLELTVTIPGLGLPVTVRTESVDPVRGYVTATLDFPVPGYRATLVFDPVTGRVYARVEPASAGGSA [r2_147_TrMRF]	2.85 ± 0.12 kcal/mol	3.13 ± 0.062 kcal/mol	2.34 ± 0.04 kcal/mol
SAGGMSVRFRFTDEDDRIHVDEIIPGEGIMRVVVEGEDRPLVFTIDAPPDAAIQLIRDLFDGPFEVEASAGG [r13_141_TrMRF]	0.596 ± 0.095 kcal/mol	0.849 ± 0.11 kcal/mol	-0.187 ± 0.26 kcal/mol
SAGGSAGGSAGGSKYVVIRVKKSVDELKDALKKAGFKVKIVSVYYDKENKEIYVVVKIESAGGSAGGSAGGS [r4_315_TrROS_Hall]	4.16 ± 0.17 kcal/mol	4.45 ± 0.14 kcal/mol	3.7 ± 0.15 kcal/mol
SAGGSAGGSAGGELELEVEVDGVLVRARVELDPETDELKIELEVRPLPPPEVVFLPEDRSAGGSAGGSAGGS [r10_582_TrROS_Hall]	0.489 ± 0.1 kcal/mol	0.504 ± 0.029 kcal/mol	0.576 ± 0.072 kcal/mol
SAGGSAGGSTLRLRFRTPDGRLFEIEAEVRPDPDGRVYRLLRIREYDPETDEWLERPFRLPILSAGGSAGGS [r12_57_TrMRF]	3.82 ± 0.056 kcal/mol	3.83 ± 0.019 kcal/mol	3.77 ± 0.12 kcal/mol
SAGGSAGGPVWKIRFPDDGKPYEFHINPNHGMIEVEDPKDGEPKGTVPMPINQLLEKGMEVEPVSAGGSAGG [r6_832_TrROS]	-0.551 ± 0.21 kcal/mol	-0.45 ± 0.26 kcal/mol	-0.769 ± 0.28 kcal/mol
GLAPRVYEVDALVTDENGVPRLYRVLVVETPLPDGTYRAVAFARDLDTTETRVLTLVSDRAVIGPDVPLTAS [r1_14_TrMRF]	2.21 ± 0.15 kcal/mol	2.24 ± 0.12 kcal/mol	2.07 ± 0.044 kcal/mol
SAGGKKYYLIKITVKTEKKEYTLPDGSKVTVEKTYELTIIVESKEEAEKLAEELAKKYNLEVEIVPLSAGGS [r8_131_TrROS_Hall]	4.51 ± 0.13 kcal/mol	4.83 ± 0.064 kcal/mol	2.95 ± 0.13 kcal/mol
SAGGSAGGSAGVTVSLPDGRVVTEVTTLPDGTVVITYTKDGKKYTTTLNGSAPAPTPTLASAGGSAGGSAGG [r17_421_JUSTAS]	2.52 ± 0.086 kcal/mol	2.58 ± 0.035 kcal/mol	2.42 ± 0.083 kcal/mol
SAGGSAGGITPDDYFLIKLNAVVKLPNGDIVELKKDEVILAKADDVEILHADDIEIYPIGRDKLSAGGSAGG [r6_810_TrMRF]	-0.0393 ± 0.22 kcal/mol	-0.503 ± 0.29 kcal/mol	0.23 ± 0.048 kcal/mol
SAGGSAGGSKTLKIEIPVEEESEEEARKKIKEALKELGIKEITEEDIKIERKEDGTLRAEIKLSAGGSAGGS [r12_122_TrROS_Hall]	0.817 ± 0.17 kcal/mol	0.343 ± 0.11 kcal/mol	0.987 ± 0.084 kcal/mol
SAGGDYWVFKIEITHRNPNGEPEKWDIFIWFDPDDPDMPAKELADWIAKYLAPNNGYEVKIEEIYPVSAGGS [r8_101_TrROS]	4.7 ± 0.31 kcal/mol	5 ± 0.1 kcal/mol	3.25 ± 0.15 kcal/mol
